{"source": "patent US20220290200A1", "about": "“GENETICALLY MODIFIED HOST CELLS PRODUCING GLYCOSYLATED CANNABINOIDS” (OCTARINE BIO IVS, priority 2019, published 2022)", "molecules": {"B1": {"name": "Sr76G1: glycosyl transferase isolated from S. rebaudiana, SEQ ID NO: 123, 124, described in prior art (protein)", "chain": "MDQMAKIDEKKPHVVFIPFPAQSHIKCMLKLARILHQKGLYITFINTDTNHERLVASGGTQWLENAPGFWFKTVPDGFGSAKDDGVKPTDALRELMDYLKTNFFDLFLDLVLKLEVPATCIICDGCMTFANTIRAAEKLNIPVILFWTMAACGFMAFYQAKVLKEKEIVPVKDETYLTNGYLDMEIDWIPGMKRIRLRDLPEFILATKQNYFAFEFLFETAQLADKVSHMIIHTFEELEASLVSEIKSIFPNVYTIGPLQLLLNKITQKETNNDSYSLWKEEPECVEWLNSKEPNSVVYVNFGSLAVMSLQDLVEFGWGLVNSNHYFLWIIRANLIDGKPAVMPQELKEAMNEKGFVGSWCSQEEVLNHPAVGGFLTHCGWGSIIESLSAGVPMLGWPSIGDQRANCRQMCKEWEVGMEIGKNVKRDEVEKLVRMLMEGLEGERMRKKALEWKKSATLATCCNGSSSLDVEKLANEIKKLSRN"}, "B2": {"name": "Si94D: glycosyl transferase active on cannabinoid glycosides, SEQ ID NO: 145, 146 (protein)", "chain": "MDTRKRSIRILMFPWLAHGHISAFLELAKSLAKRNFVIYICSSQVNLNSISKNMSSKDSISVKLVELHIPTTILPPPYHTTNGLPPHLMSTLKRALDSARPAFSTLLQTLKPDLVLYDFLQSWASEEAESQNIPAMVFLSTGAAAISFIMYHWFETRPEEYPFPAIYFREHEYDNFCRFKSSDSGTSDQLRVSDCVKRSHDLVLIKTFRELEGQYVDFLSDLTRKRFVPVGPLVQEVGCDMENEGNDIIEWLDGKDRRSTVFSSFGSEYFLSANEIEEIAYGLELSGLNFIWVVRFPHGDEKIKIEEKLPEGFLERVEGRGLVVEGWAQQRRILSHPSVGGFLSHCGWSSVMEGVYSGVPIIAVPMHLDQPFNARLVEAVGFGEEVVRSRQGNLDRGEVARVVKKLVMGKSGEGLRRRVEELSEKMREKGEEEIDSLVEELVTVVRRRERSNLKSENSMKKLNVMMMENREGMLSENA"}, "B3": {"name": "PL-159(Pt88G_GA) (protein)", "chain": "MEDTIVLYPSPGRGHLFSMVELGKQILEHHPSISITIIISAMPTESISIDDPYFSTLCNTNPSITLIHLPQVSLPPNTSFSPLDFVASFFELPELNNTNLHQTLLNLSKSSNIKAFIIDFFCSAAFEFVSSRHNIPIYFFYTTCASGLSMFLHLPILDKIITKSLKDLDIIIDLPGIPKIPSKELPPAISDRSHRVYQYLVDTAKLMIKSAGLIINTFELLERKALQAIQEGKCGAPDEPVPPLFCVGPLLTTSESKSEHECLTWLDSQPTRSVLFLCFGSMGVFNSRQLRETAIGLEKSGVRFLWVVRPPLADSQTQAGRSSTPNEPCLDLLLPEGFLERTKDRGFLVNSWAPQVEILNHGSVGGFVTHCGWNSVLEALCAGVPMVAWPLYAEQRMNRIFLVEEMKVALAFREAGDDHFVNAAELEERVIELMNSKKGEAVRERVLKLREDAVVAKSDGGSSCIAMAKLVDCFKKG"}, "B4": {"name": "Cs73Y: glycosyl transferase, SEQ ID NO: 157 (207 for the yeast codon-optimized gene) (protein)", "chain": "MGSEGRQLHIFMFPFMAHGHMIPIVDMAKLFASRGIKITIVTTPLNSISISKSLHNCSPNSLIQLLILKFPAAEAGLPDGCENADSIPSMDLLPKFFEAVSLLQPPFEEALHNNRPDCLISDMFFPWTNDVADRVGIPRLIFHGTSCFSLCSSEFMRLHKPYQHVSSDTEPFTIPYLPGDIKLTKMKLPIFVRENSENEFSKFITKVKESESFCYGVVVNSFYELEAEYVDCYKDVLGRKTWTIGPLSLTNTKTQEITLRGRESAIDEHECLKWLDSQKPNSVVYVCFGSLAKFNSAQLKEIAIGLEASGKKFIWVVRKGKGEEEEEEQNWLPEGYEERMEGTGLIIRGWAPQVLILDHPSVGGFVTHCGWNSTLEGVAAGVPMVTWPVGAEQFYNEKLVTEVLKTGVGVGVQKWAPGVGDFIESEAVEKAIRRIMEKEGEEMRNRAIELGKKAKWAVGEEGSSYSNLDALIEELKSLAF"}}, "key": {"[1]": {"experiment": "In vivo bioconversion of cannabinoid substrate to glycoside in E. coli expressing glycosyl transferases", "assay_type": "cell-based", "protocol": "The Sr76G1 expression plasmid (PL-55(Sr76G1_GA (SEQ ID NO:123,124)) was also included (resulting in E. coli strain EC-55) to test whether the absence of activity observed in vitro was also observed in vivo. Strains were subsequently incubated overnight in 5 mL of LB media supplemented with ampicillin in 10 mL pre-culture tubes at 37° C. Subsequently, cells were inoculated to a starting OD600 of 0.1 in 500 μL of LB media supplemented with ampicillin in a 96 deep-well plate and incubated at 30° C. for 6 hours. A cannabinoid substrate was then dissolved in ethanol and added to the culture media along with a suitable inducing agent (IPTG) in the following final concentrations:\nCannabinoid substrate: 250 μM\nCells were cultivated with the added ethanol, cannabinoid substrate and IPTG for a further 66 hours. Cannabinoid glycosides were extracted and analyzed by HPLC analysis as described above. The decrease in cannabinoid concentration and accumulation of cannabinoid glycosides were quantified and percent conversion calculated for each glycoside. As shown in table 51 below E. coli strains expressing glycosyl transferases could convert a range of cannabinoids into their corresponding glycosides."}, "[2]": {"experiment": "In vitro glycosyl transferase performance, purified enzymes, % conversion of cannabinoids to cannabinoid glycosides", "assay_type": "biochemical", "protocol": "For in vitro studies of glycosyl transferase performance in glycosylating cannabinoids, purified Glycosyl transferases were prepared as follows:\n5 mL of 2× concentrated LB medium+Ampicillin (50 μg/m L) was inoculated with E. coli XJb (DE3) strains expressing a glycosyl transferase of interest and incubated overnight at 30° C. with shaking. The following day, cell cultures were transferred into 500 mL of 2× concentrated LB medium+Ampicillin (50 μg/mL) and incubated overnight at 30° C. with shaking. The following day, the cell cultures were transferred to 1 L of 2× concentrated LB medium+Ampicillin (50 μg/mL)+3 mM arabinose+0.1 mM IPTG. Cells were incubated for 24 h at 20° C. with shaking. The following day, the cells were collected by centrifugation at 46500×g for 10 mins at 4° C. Cells were resuspended in 20 mL ice-cold GT buffer (50 mM Tris-HCl pH7.4+1 mM phenylmethanesulfonyl fluoride+1 cOmplete™, mini, EDTA-free Protease Inhibitor Cocktail tablet (Roche)). The resuspended material was transferred to a 50 mL falcon tube and kept at −80° C. for at least 15 mins. Falcon tubes were then thawed at room temperature, as the tubes were thawing the following reagents were added; 2.6 mM MgCl2, 1 mM CaCl2, 250 μL of a 1.4 mg/ml DNase solution (Sigma) dissolved in MilliQ water. Tubes were gently inverted to mix then were incubated for 5 mins at 37° C. Binding buffer was then added to the tubes (50 mM Tris-HCl pH7.4, 10 mM imidazole, 500 mM NaCl. 11.25 mL MilliQ water) and the pH adjusted to 7.4 with HCl. The mix was centrifuged at 15550×g for 15 mins at 4° C., the supernatant transferred to a fresh 50 mL falcon tubes and centrifuged again to remove any remaining cellular debris at 48400×g for 20 minutes at 4° C. While the enzyme prep was centrifuging, 3 mL of HIS-Select (available from Sigma P6611) column material was added to a fresh 50 mL tube and washed by adding MilliQ water up to 50 mL, centrifuging at 2000×g for 2 mins and discarding the supernatant. This washing step was repeated. Finally, MilliQ water was added to the HIS-Select material to an approximate 50% volume. Collected supernatant from the centrifuged enzyme preparation was transferred to the tube containing the HIS-Select material through a Miracloth (available from Merck Millipore), and then incubated at 4° C. with gently shaking by inversion for 2 h. After 2 h the mix was centrifuged at 2000×g for 4 minutes at 4° C. and the supernatant discarded. The remaining HIS-Select material was washed twice with 1× binding buffer (50 mM Tris-HCl, 0.5M NaCl, 10 mM Imidazole, pH 7.4) with centrifugation at 2000×g for 4 minutes at 4° C. The HIS-Select material was resuspended in 5 mL 1× binding buffer and transferred to a Poly-Prep®Chromatography Column (available from BioRad, 7311550). The HIS-Select material was kept at 4° C. and washed twice with 1× binding buffer by filling up the column and allowing it to drip through. Finally, purified Glycosyl transferases were eluted from the HIS-Select material by adding 7.5 mL of elution buffer (50 mM Tris-HCl, 500 mM Imidazole, pH7.4) and collecting the flow through. Enzymes were used immediately in in vitro enzyme assays or stored at −20° C. in 50% glycerol until needed.\nIn vitro conversion of various cannabinoids to cannabinoid glycosides was carried out according to table 21. Alkaline phosphatase was provided by New England Biolabs (M0371S). Cannabinoids were dissolved in methanol. The UDP-sugar (e.g. UDP-glucose) was provided by a commercial supplier (e.g. Sigma) or produced by in vitro enzymatic conversion from a commercially available UDP-sugar as shown in Example 21.\nThe reaction mixture was scaled up or down as required. The reaction mixture was incubated without shaking at 30° C. for 24 hours. Extraction and analysis were performed as described above for this example. […]"}, "[3]": {"experiment": "In vitro conversion of CBD with combined glycosyl transferases (sugar-sugar linkages)", "assay_type": "biochemical", "excerpt": "The glycosyl transferases described herein can broadly be grouped into either glycosyl transferases active on the cannabinoid aglycones or glycosyl transferases active on cannabinoid glycosides. The latter group, instead of attaching a sugar moiety onto a free hydroxy group on the cannabinoid molecule, attaches a sugar moiety onto the sugar group of the cannabinoid glycoside. In Example 13 a range of glycosyl transferases were discovered that were active only on cannabinoid aglycones (e.g. PL-159(Pt88G_GA) (SEQ ID NO: 147, 148)) as well a range of glycosyl transferases which were active on both cannabinoid aglycones and cannabinoid glycosides. […] Two of these enzymes (PL-55(Sr76G1_GA) (SEQ ID NO: 123, 124) and PL-32(OsEUGT11_GA) (SEQ ID NO: 115, 116)) are described in prior art and are well known to catalyze a range of sugar on sugar reactions and were recently described as being able to perform sugar on sugar reactions on cannabinoid glycosides. […] In vitro assays were performed and analyzed as described previously. […] By comparing the LC-MS/QTOF retention time, measured mass and fragmentation pattern as well as the c Log P it could be elucidated that Sr76G1, OsEUGT11 and Si94D were catalysing sugar on sugar reactions with different linkages. […]"}}, "data": [{"molecule": "B1", "values": [{"measurement": "glycosyl transferase activity in vivo", "setting": "[1]; E. coli strain EC-55", "result": "lack of activity"}, {"measurement": "glycosyltransferase activity using cannabinoid aglycones as substrate", "setting": "[2]; any cannabinoid aglycone", "result": "no glycosyltransferase activity was detected"}]}, {"molecule": "B2", "values": [{"measurement": "efficiency of 1-6 glucose-glucose linkage (gentiobioside) formation", "setting": "[3]; combined with Pt88G, CBD and UDP-glucose as substrates", "result": 100, "unit": "%"}]}, {"molecule": "B3", "values": [{"measurement": "amount of CBD converted to OB1 (CBD-1′-O-β-D-glucoside) expressed as a percentage", "setting": "[3]; substrate CBD, in vitro", "result": 97.5, "unit": "%"}, {"measurement": "% conversion of CBD to OB1 (CBD-1′-O-β-D-glucoside)", "setting": "[2]; glycosyl transferase in vitro, Table 24", "result": 97.4, "unit": "%"}, {"measurement": "% conversion of CBD to OB13 (CBD-1′-O-α-L- rhamnoside)", "setting": "[2]; glycosyl transferase in vitro, Table 25", "result": 2.0, "unit": "%"}, {"measurement": "% conversion of CBD to OB9 (CBD-1′-O-β-D-xyloside)", "setting": "[2]; glycosyl transferase in vitro, Table 26", "result": 12.4, "unit": "%"}, {"measurement": "% conversion of CBDV to OB24 (CBDV-1′-O-β-D-glucoside)", "setting": "[2]; glycosyl transferase in vitro, Table 33", "result": 89.2, "unit": "%"}, {"measurement": "% conversion of CBDA to OB31 (CBDA-1′-O-β-D-glucoside)", "setting": "[2]; glycosyl transferase in vitro, Table 37", "result": 12.0, "unit": "%"}, {"measurement": "% conversion, CBG to OB32 (CBG-1′-O-β-D-glucoside)", "setting": "[2]; substrate CBG, product OB32, glycosyl transferase in vitro", "result": 51.9, "unit": "%"}]}, {"molecule": "B4", "values": [{"measurement": "conversion of fed cannabinoid to cannabinoid glycoside in vivo", "setting": "[1]; E. coli, 250 μM CBN fed, to OB23", "result": 100, "unit": "%"}]}]}
